According to publication PMC11655885, “Structural mechanism of CB1R binding to peripheral and biased inverse agonists” (Nature Communications, 2024):

How the values were obtained:
CB1R-5M-PGS = CB1R-5M-PGS (Homo sapiens, UniProt P21554); test: Analytical gel filtration test of CNB36 binding to CB1R-5M-PGS; conditions: purified CNB36
Description: For binding tests, 10 μM purified CNB36 was incubated for 1 hr with purified PGS or CB1R-5M-PGS (5 μM). The complex was then centrifuged at 21,130 × g for 15 min at 4 °C to remove large aggregates, and the supernatant was run on an analytical-grade Superdex 200 10/300 Increase column at 0.5 mL/min in CB1 gel filtration buffer. The presence or absence of binding of CNB36 to CB1R-5M-PGS or to PGS alone was assessed by SDS-PAGE analysis of peak fractions.

[1] = tested on: CB1R-5M-PGS over GPR55-PGS; test: Analytical flow cytometry of yeast-displayed CNB36, CB1R-5M-PGS versus GPR55-PGS; type: binding
Description: Supplementary Figure 1. (A-H) Sel ecti on and bi ochemi cal characteri zati on of CNB36
(A) Overall strategy for nanobody selection and sequence of CNB36.
(B) FA C S sort of a yeast display nanobody library against Alexa647-labeled CB1-PGS […]
round of selection that gave rise to CNB36. The indicated gat e (P5) contains the highly fluorescent CB1-PGS single posit ive populat ion, which was then analyzed by sequencing of individual clones.
(C) Binding of CNB36 to CB1-PGS, read out by size exclusion chromatography and SDS-PA G E . […]
(D) Assessment of binding of CNB36 to PGS alone, as in C.
(E) Analytical flow cytometry comparing binding of CNB36-expressing yeast t o Alexa647-labeled CB1-PGS (Y-axis) versus FI TC-labeled GPR55-PGS (X-axis).
(F) Final sample used for cryo-EM grid preparat ion by size excusion chromatography and […]

Sequence of CB1R-5M-PGS (P21554 with tags, fused parts or gaps): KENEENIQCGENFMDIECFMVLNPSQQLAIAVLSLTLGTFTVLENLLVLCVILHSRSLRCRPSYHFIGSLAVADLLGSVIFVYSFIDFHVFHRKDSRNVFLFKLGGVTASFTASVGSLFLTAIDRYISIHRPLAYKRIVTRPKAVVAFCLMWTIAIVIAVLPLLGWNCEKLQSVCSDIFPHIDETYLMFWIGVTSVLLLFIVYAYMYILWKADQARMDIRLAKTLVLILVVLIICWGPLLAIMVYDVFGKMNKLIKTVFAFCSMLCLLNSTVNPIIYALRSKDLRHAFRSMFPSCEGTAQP

B1: CNB36: nanobody selected from a yeast display library against the CB1R-5M-PGS fusion protein (antibody, V domains shown)
VH: QVQLQESGGGLVQAGGSLRLSCAASGTIFGPDVMGWYRQAPGKERELVAGISNGANTYYADSVKGRFTISRDNAKNTVYLQMNSLKPEDTAVYYCAAEVLDYTFAYLYHAYWGQGTQVTVSS
complex formation with CB1R-5M-PGS by size exclusion chromatography (CB1R-5M-PGS): formed a stable complex | specificity for purified CB1R-5M-PGS over GPR55-PGS by FACS [1]: high specificity
